B1: Protein S100-B (Homo sapiens), P04271 (parent)
chain: MSELEKAMVALIDVFHQYSGREGDKHKLKKSELKELINNELSHFLEEIKEQEVVDKVMETLDNDGDGECDFQEFMAFVAMVTTACHEFFEHE
partner: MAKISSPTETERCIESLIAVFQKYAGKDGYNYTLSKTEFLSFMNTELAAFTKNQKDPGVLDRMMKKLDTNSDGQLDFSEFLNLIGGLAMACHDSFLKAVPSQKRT
B2: Protein S100-B (Homo sapiens), P04271 (parent)
chain: B1 chain

Variants of: B1
Details: with S100A11, P31949

| Variant | effect of a mutation on the interaction |
| --- | --- |
| MSELEKAMVALIDVFHQYSGREGDKHKLKKSELKELINNELSHFLEEIKEQEVVDKVMETLDNDGDGECDFQEFMAFVAMVTTACHEFAEHE [F89A] | decreasing interaction |

Variants of: B2
Details: with S100A6, P06703

| Variant | effect of a mutation on the interaction |
| --- | --- |
| MSELEKAMVALIDVFHQYSGREGDKHKLKKSELKELINNELSHFLEEIKEQEVVDKVMETLDNDGDGECDFQEFMAFVAMVTTACHEAFEHE [F88A] | decreasing interaction |

Variants of: B2
Details: with S100A6, P06703
Remark: another data set of the same source

| Variant | effect of a mutation on the interaction |
| --- | --- |
| MSELEKAMVALIDVFHQYSGREGDKHKLKKSELKELINNELSHFLEEIKEQEVVDKVMETLDNDGDGECDFQEFMAFVAMVTTACHEFAEHE [F89A] | decreasing interaction |

From IntAct's records for PubMed 10913138
